9 molecules from publication PMC2396876 (The EMBO Journal, 2008) can be followed below.

Values joined by “and” are separate entries in the source; they are usually repeats but may differ in a detail not shown here. Identical values can stand only once.

For series [1], the target named is UspA1^(527–665) A590Q (Moraxella catarrhalis (strain MX2)). The series is described as follows: western blot of oligomers.
Series [2] concerns the target UspA1^(527–665) A568Q (Moraxella catarrhalis (strain MX2)). The series is described as follows: western blot of oligomers. (In general: A western blot detects proteins with antibodies after separation by electrophoresis.)
Series [3] concerns the target UspA1^(527–665) M586A (Moraxella catarrhalis (strain MX2)). As to the kind of experiment: western blot of oligomers.
In series [4] the target is N‐CEACAM1, the N‐terminal domain of human carcinoembryonic antigen‐related cell adhesion molecule 1 (human). As to the kind of experiment: AUC.
In series [5] the target is UspA1^(527–665), recombinant fragment of the Moraxella catarrhalis MX2 adhesin UspA1 (Moraxella catarrhalis (strain MX2)). As to the kind of experiment: AUC.
Series [6] shares this target. As to the kind of experiment: ITC.
Series [7] addresses UspA1^(527–665) M586A (Moraxella catarrhalis (strain MX2)). As to the kind of experiment: far-Western, overlay or dot blot.
The target in series [8] is UspA1^(527–665) M586A/A588Q (Moraxella catarrhalis (strain MX2)) (UniProt Q9XD56). The series is described as follows: far-Western, overlay or dot blot.
Series [9] concerns the target UspA1^(527–665) L583A (Moraxella catarrhalis (strain MX2)). As to the kind of experiment: western blot of oligomers.
For series [10], the target named is UspA1^(527–665) A588Q (Moraxella catarrhalis (strain MX2)). The series is described as follows: western blot of oligomers.
Series [11] deals with UspA1^(527–665), recombinant fragment of the Moraxella catarrhalis MX2 adhesin UspA1 (Moraxella catarrhalis (strain MX2)). The series is described as follows: crystal structure.
Series [12] concerns the molecule itself. The series is described as follows: western blot of oligomers.

For orientation: Kd means a measure of binding affinity in units of concentration. The stoichiometry N is a count of units in the complex or per binding partner.

As to “UspA1^(527–665) A590Q (domain or fragment)”, the stoichiometry N (chains in the oligomer) in [1] turned out to be 3.

Consider “UspA1^(527–665) A568Q (domain or fragment)”, for which the stoichiometry N (chains in the oligomer) in [2] was 3.

For “UspA1^(527–665) M586A (domain or fragment)”, the stoichiometry N (chains in the oligomer) in series [3] came to 3.

“N‐CEACAM1, the N‐terminal domain of human carcinoembryonic antigen‐related cell adhesion molecule 1 (domain or fragment)” yielded a stoichiometry N (chains in the oligomer) in series [4] of 2. In addition, the stoichiometry N (N‐CEACAM1 per UspA1^(527–665) trimer) in series [5] is 2; in [6], 2.1 and 1.9. The Kd in series [6] turned out to be 35 nM.

For “soluble CEACAM1‐Fc receptor (from UniProt P13688 35-428) (Fc fusion)”, the decrease in CEACAM1 binding (densitometry, against native UspA1^(527–665)) in [7] was found to be 14.8%; in [8], 90.4%.

“UspA1^(527–665) L583A (domain or fragment)” displayed a stoichiometry N (chains in the oligomer) in series [9] of 3.

On to “UspA1^(527–665) A588Q (domain or fragment)”, for which the stoichiometry N (chains in the oligomer) in series [10] worked out at 3.

Take “UspA1^(527–665), recombinant fragment of the Moraxella catarrhalis MX2 adhesin UspA1 (domain or fragment)”: the stoichiometry N (chains in the oligomer) in [5] and in series [11] was 3 each time.

B1: UspA1^(527–665) M586A/A588Q (domain or fragment, Moraxella catarrhalis (strain MX2), UniProt Q9XD56 527-665, looked up)
chain: ASSANTDRIATAELGIAENKKDAQIAKAQANENKDGIAKNQADIQLHDKKITNLGILHSAVQRAVGNNTQGVATNKADIAKNQADIANNIKNIYELAQQQDQHSSDIKTLAKVSAANTDRIAKNKAEADASFETLTKNQ
On to B1, for which the “stoichiometry N” value in series [12] was determined as 3 chains in the oligomer.
